Reference: the supplement of paper PMC10126150
± gives the standard deviation of the averaged measurements.

Tested on: ATP
Assay: switch fluorescence ratio, 500 uM ATP over buffer (Cy3 cluster intensity, sum of 5 cycles each) (fold (ratio)); higher = stronger signal-on switching upon ATP binding; sequences stand for … in TCGTCGGCAGCGTCAGATGTGTATAAGAGACAGTTTTTTTTTTTTTTTTTTTTTTTTT…TC
Settings: aptamer strand: ATP DNA aptamer (quencher-CACCTGGGGGAGTATTGCGGAGGAAGG + anchor), 100 nM annealed; ATP concentration: 500 uM
Method in brief: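 Cy3-labelled switching-strand clusters on a modified Illumina MiSeq flow-cell were annealed to 100 nM quencher-labelled ATP aptamer, imaged in selection buffer, then imaged after 15 min with 500 uM ATP at 22 °C. Five buffer/ATP cycles ran, with NaOH stripping and re-annealing between them. The fluorescence ratio is summed target-cycle over summed buffer-cycle Cy3 intensity per cluster, averaged per switch-domain sequence. Clusters outside 100-1000 RFU were excluded.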
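Also: ATP exposure 15 min at 22 °C before imaging.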

| Sequence | switch fluorescence ratio |
| --- | --- |
| GGTTTTAATG | 0.988 ± 0.031 |
| GGTTTTAGTT | 0.986 ± 0.03 |
| GGTTTTATAT | 1.006 ± 0.0068 |
| GGTTTTGAAG | 0.9959 ± 0.0063 |
| GGTTTTGACA | 0.9941 ± 0.0065 |
| GGTTTTGAGA | 1.02 ± 0.029 |
| GGTTTTGAGG | 0.973 ± 0.011 |
| GGTTTTGCAG | 0.9946 ± 0.0069 |
| GGTTTTGTGG | 1.01 ± 0.03 |
| GGTTTTGTGT | 0.962 ± 0.038 |
| GGTTTTTCTG | 0.992 ± 0.061 |
| GGTTTTTGGA | 0.981 ± 0.038 |
| GGTTTTTGTG | 1.01 ± 0.034 |
| GTAAAAGCGG | 0.9788 ± 0.0082 |
| GTAAAATGGG | 0.997 ± 0.011 |
| GTAAAGGGCG | 0.973 ± 0.021 |
| GTAAATATAG | 0.9813 ± 3.7e-05 |
| GTAAATATGG | 0.987 ± 0.024 |
| GTAACAGATT | 0.976 ± 0.039 |
| GTAACGTTAG | 0.998 ± 0.042 |
| GTAACTTTTT | 1.056 ± 0.0034 |
| GTAAGAATGG | 1.03 ± 0.03 |
| GTAAGAGTGC | 1.03 ± 0.026 |
| GTAAGAGTTC | 1.02 ± 0.051 |
| GTAAGATATT | 0.9994 ± 0.0098 |

| Sequence | switch fluorescence ratio |
| --- | --- |
| GTAAGGAGAG | 1.02 ± 0.017 |
| GTAAGGGAAA | 1.02 ± 0.051 |
| GTAAGTTGGG | 0.993 ± 0.024 |
| GTAATAAGAT | 0.996 ± 0.0046 |
| GTAATAAGGA | 0.994 ± 0.029 |
| GTAATAATTT | 0.9982 ± 0.0034 |
| GTAATAGAGA | 1.01 ± 0.043 |
| GTAATCGCAA | 2.65 ± 0.15 |
| GTAATGGATC | 0.986 ± 0.042 |
| GTAATGTCTT | 0.9797 ± 0.0084 |
| GTAATTAGAT | 0.969 ± 0.022 |
| GTAATTTAGT | 1.02 ± 0.022 |
| GTAATTTATC | 1.0089 ± 0.00052 |
| GTAATTTATG | 1.01 ± 0.02 |
| GTAATTTGGT | 0.9904 ± 0.0032 |
| GTACGGGGAA | 1.04 ± 0.03 |
| GTACGGGGGT | 0.996 ± 0.059 |
| GTACTAGTAT | 0.977 ± 0.023 |
| GTACTGGATT | 0.988 ± 0.035 |
| GTACTGTAGG | 1 ± 0.026 |
| GTACTTGGCT | 1.016 ± 0.0023 |
| GTACTTTCGG | 0.98 ± 0.015 |
| GTAGAAAAAA | 1.002 ± 0.01 |
| GTAGAAAGTA | 0.973 ± 0.031 |
| GTAGAAGGGT | 1.01 ± 0.016 |

| Sequence | switch fluorescence ratio |
| --- | --- |
| GTAGCCCGGG | 0.993 ± 0.026 |
| GTAGCGGCTG | 1.037 ± 0.01 |
| GTAGCTATAT | 4.08 ± 0.14 |
| GTAGGACGTC | 1.02 ± 0.011 |
| GTAGGCGGGG | 0.99 ± 0.018 |
| GTAGGCTAGT | 1 ± 0.033 |
| GTAGGGAACC | 0.976 ± 0.025 |
| GTAGGGGGGT | 1.07 ± 0.21 |
| GTAGGGGGTT | 0.9951 ± 0.0041 |
| GTAGGGTCAG | 0.994 ± 0.027 |
| GTAGTAGCGG | 1.02 ± 0.025 |
| GTAGTCTAGA | 0.965 ± 0.024 |
| GTAGTTACGG | 1.05 ± 0.019 |
| GTAGTTAGGG | 1.02 ± 0.015 |
| GTAGTTCGGG | 0.997 ± 0.036 |
| GTAGTTTTGC | 1.0341 ± 0.00013 |
| GTATAAAGGG | 1.02 ± 0.048 |
| GTATAAGAGC | 0.985 ± 0.033 |
| GTATAATTGT | 0.984 ± 0.019 |
| GTATAATTTG | 0.9933 ± 0.0019 |
| GTATACATTG | 1.02 ± 0.027 |
| GTATAGTCGG | 1.04 ± 0.017 |
| GTATATGGTC | 1.02 ± 0.03 |
| GTATCCTATA | 1 ± 0.017 |
| GTATCTAGTT | 0.996 ± 0.024 |

| Sequence | switch fluorescence ratio |
| --- | --- |
| GTATGAATCG | 0.961 ± 0.056 |
| GTATGAATGT | 0.985 ± 0.03 |
| GTATGAATTA | 0.985 ± 0.033 |
| GTATGACAGT | 1.02 ± 0.032 |
| GTATGGGTTT | 0.975 ± 0.012 |
| GTATGGTAGG | 1.03 ± 0.05 |
| GTATGTCCCC | 1.0169 ± 0.00096 |
| GTATTAAAGC | 1.024 ± 0.0052 |
| GTATTAGGGG | 1.01 ± 0.028 |
| GTATTATGGG | 1 ± 0.029 |
| GTATTATTAA | 1.05 ± 0.0015 |
| GTATTGGATA | 0.998 ± 0.042 |
| GTATTGGGTT | 1 ± 0.056 |
| GTATTTCCGG | 0.9965 ± 0.0056 |
| GTATTTTTTG | 0.9958 ± 0.0069 |
| GTCAAATATG | 0.9678 ± 0.0028 |
| GTCAGAACG | 1.03 ± 0.014 |
| GTCAGCAAAT | 1.05 ± 0.02 |
| GTCATAAGTG | 0.982 ± 0.04 |
| GTCATACCTT | 1.2 ± 0.1 |
| GTCATCAGTG | 1.02 ± 0.027 |
| GTCATGAGAT | 0.9987 ± 0.0047 |
| GTCATTAGCG | 0.973 ± 0.012 |
| GTCCAAATGG | 0.999 ± 0.022 |
| GTCCACAGGT | 1.69 ± 0.056 |
